The target of the experiment is CLDN18.2 (species not stated). The experiment is described as follows: affinity measurement, method not described.

For orientation: Kd means the constant that tells how readily two partners part at equilibrium. Read a low Kd as tighter binding.

For “IMAB362 (Zolbetuximab), positive control antibody”, the Kd came out at 4.17 nM.

For the origin of these results see patent CN117567617A.
